According to patent US20240294611A1:
Several values for one entry are separate records, joined by “and”; a condition that tells them apart may be missing. Equal entries are not always repeated.

Experiments:
[1] = target: SARS-CoV-2 HexaPro spike (SARS-CoV-2) (UniProt P0DTC2)
[2] = target: SARS-CoV spike without stabilizing modifications on pseudovirus (SARS-CoV) (UniProt P59594); experiment: cell-based or functional assay
[3] = target: wild-type SARS-CoV-2 spike without stabilizing modifications (on cells or pseudovirus) (SARS-CoV-2) (UniProt P0DTC2); experiment: cell-based or functional assay

Row | Substance | Kd [1] | Pseudovirus IC50 [2] | Pseudovirus IC50 [3]
1 | antibody S309 (Pinto et al., 2020) | 18 nM and 24 nM | 0.5 nM | 1 nM
2 | isotype control antibody with irrelevant binding |  | > 5000 nM | > 5000 nM
